Assay results published in patent US20230183319A1.

Legend:
Assay in all cases: cell-based or functional assay
[1] = biological target: T1, BMP9 (UniProt Q9UK05)
T1 sequence (looked up): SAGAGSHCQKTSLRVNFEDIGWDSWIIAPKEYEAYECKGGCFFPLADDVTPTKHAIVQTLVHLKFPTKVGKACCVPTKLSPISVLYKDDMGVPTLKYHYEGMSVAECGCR

[2] = biological target: T2, GDF11 (UniProt O95390)
T2 sequence (looked up): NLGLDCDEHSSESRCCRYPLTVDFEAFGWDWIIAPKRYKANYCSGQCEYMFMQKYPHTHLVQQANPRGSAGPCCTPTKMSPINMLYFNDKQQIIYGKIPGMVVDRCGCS

[3] = biological target: T3, activin A (UniProt P08476)
T3 sequence (looked up): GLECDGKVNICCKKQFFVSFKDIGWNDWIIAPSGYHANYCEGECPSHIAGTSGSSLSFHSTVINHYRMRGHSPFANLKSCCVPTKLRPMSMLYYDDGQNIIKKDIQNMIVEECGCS

[4] = biological target: T4, BMP10 (UniProt O95393)
T4 sequence (looked up): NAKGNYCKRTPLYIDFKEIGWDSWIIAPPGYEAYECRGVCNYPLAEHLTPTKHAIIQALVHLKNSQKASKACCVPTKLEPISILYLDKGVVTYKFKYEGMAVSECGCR

[5] = biological target: T5, GDF8 (UniProt O14793)
T5 sequence (looked up): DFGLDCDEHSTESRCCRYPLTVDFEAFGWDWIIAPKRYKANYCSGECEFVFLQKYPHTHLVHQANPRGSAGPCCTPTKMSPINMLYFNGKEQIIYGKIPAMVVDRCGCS

[6] = biological target: T6, activin B (UniProt P09529)
T6 sequence (looked up): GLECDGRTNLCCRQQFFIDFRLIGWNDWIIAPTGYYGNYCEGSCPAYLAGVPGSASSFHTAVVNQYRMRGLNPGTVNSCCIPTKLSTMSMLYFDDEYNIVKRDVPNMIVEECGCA

ActRIIB-G1Fc (SEQ ID NO: 5) (Fc fusion), sequence (chain): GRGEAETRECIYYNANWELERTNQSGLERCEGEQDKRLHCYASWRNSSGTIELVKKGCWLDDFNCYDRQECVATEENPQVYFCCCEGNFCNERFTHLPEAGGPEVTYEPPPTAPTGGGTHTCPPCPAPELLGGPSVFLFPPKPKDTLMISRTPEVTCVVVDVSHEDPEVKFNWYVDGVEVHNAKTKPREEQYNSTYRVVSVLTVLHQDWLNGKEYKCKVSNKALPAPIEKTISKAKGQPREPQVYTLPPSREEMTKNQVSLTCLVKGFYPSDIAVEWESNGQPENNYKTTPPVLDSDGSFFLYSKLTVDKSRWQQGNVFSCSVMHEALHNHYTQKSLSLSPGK

Substance | IC50 (ng/mL); A204 CAGA12 luciferase reporter [1] [ng/mL] | IC50 (ng/mL); A204 CAGA12 luciferase reporter [2] [ng/mL] | IC50 (ng/mL); A204 CAGA12 luciferase reporter [3] [ng/mL] | further results
ActRIIB-Fc E52K (Fc fusion) | 10000 | 296 | 762 | 
ActRIIB-Fc Y60K (Fc fusion) |  | 414 |  | 
ActRIIB-Fc E52A (Fc fusion) | 359 | 71 | 198 | 
ActRIIB(F82T)-G1Fc (Fc fusion) |  |  |  | IC50 (nM); A204 CAGA12 luciferase reporter [4]: 0.07 nM; IC50 (nM); A204 CAGA12 luciferase reporter [2]: 0.27 nM; IC50 (nM); A204 CAGA12 luciferase reporter [5]: 2.17 nM; IC50 (nM); A204 CAGA12 luciferase reporter [3]: 0.1 nM; IC50 (nM); A204 CAGA12 luciferase reporter [6]: 0.09 nM
ActRIIB-Fc F82W (Fc fusion) |  | 276 |  | 
ActRIIB-Fc A24N (Fc fusion) | 409 | 99 | 128 | 
ActRIIB-Fc K55R (Fc fusion) | 777 | 318 | 206 | 
ActRIIB-Fc Y60P (Fc fusion) |  | 544 |  | 
ActRIIB-Fc K74R (Fc fusion) | 165 | 45 |  | 
ActRIIB-Fc E50K (Fc fusion) | 721 | 180 | 132 | 
ActRIIB-G1Fc (SEQ ID NO: 5) (Fc fusion) | 31 | 9 | 8 | IC50 (nM); A204 CAGA12 luciferase reporter [4]: 0.036 nM; IC50 (nM); A204 CAGA12 luciferase reporter [1]: 1.82 nM; IC50 (nM); A204 CAGA12 luciferase reporter [2]: 0.12 nM; IC50 (nM); A204 CAGA12 luciferase reporter [5]: 0.95 nM; IC50 (nM); A204 CAGA12 luciferase reporter [3]: 0.05 nM; IC50 (nM); A204 CAGA12 luciferase reporter [6]: 0.067 nM
ActRIIB-Fc L79R (Fc fusion) |  | 234 |  | 
ActRIIB-Fc E50P (Fc fusion) | 3000 | 638 | 756 | 
ActRIIB(F82W, N83A)-G1Fc (Fc fusion) | 40000 | 389 |  | 
ActRIIB(L79K)-G1Fc (Fc fusion) |  | 477 |  | 
ActRIIB-Fc R40A (Fc fusion) | 1210 | 591 |  | 
ActRIIB-Fc K55D (Fc fusion) | 5500 | 365 | 396 | 
